According to the domain aggregation screens of Martell et al. (2025):

Test: soluble fraction after stress (log2 fold change); higher = more stays soluble; pooled small domains, quantitative proteomics
Details: stress: 50 degC
In short: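 Each library was heated to 50°C as a stress step. The libraries, made up of small protein domains, were pooled and analysed at high throughput by quantitative proteomics. The reported value is the base-two logarithm of the fold change in each protein's soluble amount after stress, taken as a measure of aggregation propensity. The higher the value, the more protein stays in solution.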

Row | Sequence | soluble fraction (log2)
1 | HMTSDYEPSEKDEKAVIGIAFLRNTDVYDVDIDKAEAIKALKANNDIYQKFVKFFPFVKLPSLYDDFQ | -0.00582
2 | HMGSLVQTAMQAVTKHIHDNAMRVGDTLPGEGHFAETLGVSRAVMREAFGALAALKLIDVGNGRKPRVGR | -0.819
3 | HMSSQWWYSAGGERKGPVDFATLRGLYVQGAIDGRTLAWREDMQGWEAVNDIPDLEPLRRAVPPEL | -0.0348
4 | HMSETEWGEIYRKVMAAGLIPARSVRERLLALPSIEPLLQAAEAAGSKGMLDETLLDSLLSKT | 0.134
5 | HMSLSKQETEFLTTFSASGKRVFTYQQATDYWQSKVAATNVLGRLVRKGWLQRLERGLYMIIPLEAGPERF | -0.853
6 | HMDAPKPDIGMSTDQIRSSLGQPGSQTRLETGGGRIYELWIYLYPDGKELQIYFDNAKVVKMEALS | -0.613
7 | HMSLNHDIWVQELKEKRSGYGISQSRLAIAAGMTRQYLSDIETGKVLPSAERKAAITEALERFNPD | -0.368
8 | HMREIEVNYAAGDSVRVIDGPLAGFIGVVSSVEPDKNKVNVTVSMFGRETPVELELDQVETLD | 0.159
9 | HMQVEYTRGELIQDLEGGKIVYAGISPSRETPTGEVNFILDSGLTRTLYVTDVSEIEQLLISYDIDPEVKK | -0.0036
10 | HMAFAQMAQEAAKGKDDFNDLRQEMEAVIKEQPHILLMAQFGQNPYEIAYQEAKRRKAQDQQQQQ | 0.288
11 | HMKSLLTARQLEVFEIARNKGYWTTPRKISLVELSKLLDISKSTLSVLLHSIEGKVMEEFYEEIRQ | -1.81
12 | HMDTDWDVSGVTPDQYRLLFSVLGGLAGVKDVGLNPDGLRIIHTPEALPSIEKAFQANGLKLKRNVD | 0.035
13 | HMGDLVKGKVVGYDPDNVIVDIGAKTNALVPNREAVVEAGDDIKETLKKGNEYEFLIIRDEDEEGEFL | 0.29
14 | HMLIGLNETESLVLDALIANPMRIDQVSAMLKKDVATTLKFLGGLSVRGLVETLFGGRFAPTKIALHARS | -0.276
15 | HMIQLKEHDVVRLRETIVENDEKIPAGTRGVVLSVYDGGRAFAVEVADDRAASAIITAFRDQLEVY | -0.136
16 | HMVGGIAIGQFNVPRGSVKVTAGGRLLQEGLDYTVNYQAGRVQILDESLKNSNVPIEISTESNS | 0.229
17 | HMTGVPYLVRVKITDLHIRSGPGTNYASKGFIAPGAYTIVEESTGQGAALWGKLKSGKGWIALGYTEK | -1.09
18 | HMTIERVKIKETPTGWLRVRETPDNNGSEIGRANVGEIYELLGSKGEWYHIVYKGKQGFISTKYAEKVL | -0.22
19 | HMPMIQHFHRMISAALGISEKQIVQTLGLLNDGATIPFISRYRKEVTGGLDEVQIESIKTHYEKLNEIAK | -1.52
